The results in this text go back to patent US20100075908A1 (published 2010).

The chains are these.
B1: GPIIbIIIa mimotope peptide 2 (EHIPA) (peptide)
peptide: EHIPA
modifications: also: coupled to PEG 3400 carrying biotin, coupled end not given here
notes: also called B-peptide 2
B2: SHAYIGLKDR (SEQ ID NO:8) (peptide)
peptide: SHAYIGLKDR
B3: L10 (HPG conjugate with 10 L-peptides per HPG) (other)
peptide: CGGGGGGSHAYIGLKDR
modifications: also: coupled through vinyl sulfone to 500 kDa hyperbranched polyglycerol, about 10 peptides per HPG
B4: D-pep3 (…) (peptide)
peptide: [dR][dS][dA][dR][dM][dQ][dV][dC][dW][dN][dA][dF][dK][dN][dR]
B5: GPIIbIIIa mimotope peptide 1 (APLHK) (peptide)
peptide: APLHK
modifications: also: coupled to PEG 3400 carrying biotin, coupled end not given here
notes: also called A-peptide 1
B6: LR10 (HPG conjugate with 10 L-retro peptides per HPG) (other)
peptide: CGGGGGGRDKLGIYAHS
modifications: also: coupled through vinyl sulfone to 500 kDa hyperbranched polyglycerol, about 10 peptides per HPG
notes: Peptide-polymer conjugate
B7: L-CGGGGGGRDKLGIYAHS (L-retro peptide) (peptide)
peptide: CGGGGGGRDKLGIYAHS
notes: Linker CGGGGGG followed by the reversed mimotope; L-amino acids; free peptide; also called LR-pep; LR-peptide
B8: fibrinogen (ligand)
chain 1: ADSGEGDFLAEGGGVRGPRVVERHQSACKDSDWPFCSDEDWNYKCPSGCRMKGLIDEVNQDFTNRINKLKNSLFEYQKNNKDSHSLTTNIMEILRGDFSSANNRDNTYNRVSEDLRSRIEVLKRKVIEKVQHIQLLQKNVRAQLVDMKRLEVDIDIKIRSCRGSCSRALAREVDLKDYEDQQKQLEQVIAKDLLPSRDRQHLPLIKMKPVPDLVPGNFKSQLQKVPPEWKALTDMPQMRMELERPGGNEITRGGSTSYGTGSETESPRNPSSAGSWNSGSSGPGSTGNRNPGSSGTGGTATWKPGSSGPGSTGSWNSGSSGTGSTGNQNPGSPRPGSTGTWNPGSSERGSAGHWTSESSVSGSTGQWHSESGSFRPDSPGSGNARPNNPDWGTFEEVSGNVSPGTRREYHTEKLVTSKGDKELRTGKEKVTSGSTTTTRRSCSKTVTKTVIGPDGHKEVTKEVVTSEDGSDCPEAMDLGTLSGIGTLDGFRHRHPDEAAFFDTASTGKTFPGFFSPMLGEFVSETESRGSESGIFTNTKESSSHHPGIAEFPSRGKSSSYSKQFTSSTSYNRGDSTFESKSYKMADEAGSEADHEGTHSTKRGHAKSRPV
chain 2: QGVNDNEEGFFSARGHRPLDKKREEAPSLRPAPPPISGGGYRARPAKAAATQKKVERKAPDAGGCLHADPDLGVLCPTGCQLQEALLQQERPIRNSVDELNNNVEAVSQTSSSSFQYMYLLKDLWQKRQKQVKDNENVVNEYSSELEKHQLYIDETVNSNIPTNLRVLRSILENLRSKIQKLESDVSAQMEYCRTPCTVSCNIPVVSGKECEEIIRKGGETSEMYLIQPDSSVKPYRVYCDMNTENGGWTVIQNRQDGSVDFGRKWDPYKQGFGNVATNTDGKNYCGLPGEYWLGNDKISQLTRMGPTELLIEMEDWKGDKVKAHYGGFTVQNEANKYQISVNKYRGTAGNALMDGASQLMGENRTMTIHNGMFFSTYDRDNDGWLTSDPRKQCSKEDGGGWWYNRCHAANPNGRYYWGGQYTWDMAKHGTDDGVVWMNWKGSWYSMRKMSMKIRPFFPQQ
chain 3: YVATRDNCCILDERFGSYCPTTCGIADFLSTYQTKVDKDLQSLEDILHQVENKTSEVKQLIKAIQLTYNPDESSKPNMIDAATLKSRKMLEEIMKYEASILTHDSSIRYLQEIYNSNNQKIVNLKEKVAQLEAQCQEPCKDTVQIHDITGKDCQDIANKGAKQSGLYFIKPLKANQQFLVYCEIDGSGNGWTVFQKRLDGSVDFKKNWIQYKEGFGHLSPTGTTEFWLGNEKIHLISTQSAIPYALRVELEDWNGRTSTADYAMFKVGPEADKYRLTYAYFAGGDAGDAFDGFDFGDDPSDKFFTSHNGMQFSTWDNDNDKFEGNCAEQDGSGWWMNKCHAGHLNGVYYQGGTYSKASTPNGYDNGIIWATWKTRWYSMKKTTMKIIPFNRLTIGEGQQHHLGGAKQAGDV
notes: Soluble plasma fibrinogen flowed over the Biacore chip; also called free fibrinogen
B9: L-CGGGGGGSHAYIGLKDR (L-peptide) (peptide)
peptide: CGGGGGGSHAYIGLKDR
notes: L-amino acids; free peptide
B10: L100 (HPG conjugate with 100 L-peptides per HPG) (other)
peptide: CGGGGGGSHAYIGLKDR
modifications: also: coupled via vinyl sulfone to 500 kDa hyperbranched polyglycerol (HPG), about 100 peptides per HPG
B11: LR100 (HPG conjugate with 100 L-retro peptides per HPG) (other)
peptide: CGGGGGGRDKLGIYAHS
modifications: also: coupled via vinyl sulfone to 500 kDa hyperbranched polyglycerol (HPG), about 100 peptides per HPG
notes: Peptide-polymer conjugate
B12: D-… (D-retro peptide; SEQ ID NO:12) (peptide)
peptide: [dC]GGGGGG[dR][dD][dK][dL]G[dI][dY][dA][dH][dS]
modifications: not fully specified

The experiment “fibrinogen” deals with B8. The experiment can be described thus: SPR (Biacore), peptide-PEG-biotin on streptavidin chip, fibrinogen in flow, Langmuir analysis. The text has this: In this case, peptides known to interfere with fibrinogen-GPIIbIIIa interaction were synthesized, and coupled to the end of a long (3400 MW) PEG molecule whose other end was attached to biotin, as illustrated schematically in FIG. 7. As is known in the art, fibrinogen is a soluble protein in the blood plasma essential for clotting of blood which the enzyme thrombin converts into the insoluble protein fibrin. As shown schematically in FIG. 7, the biotin molecule was used to tether down the peptide-PEG onto a streptavidin-modified Biacore chip. This allowed the GPIIbIIIa mimicking peptide to be hanging off the free end of the PEG.
By allowing free fibrinogen to flow past the peptide, the binding kinetics (i.e., the “on/off rate”) between fibrinogen and the peptides were measured. Then, the fibrinogen was released from the peptide. Using several fibrinogen concentrations, it was possible to measure the KD of the binding interaction between the peptide and the fibrinogen.

The target in experiment [1] is T1, GPIb on human platelets (human, UniProt P07359 17-652; P13224 26-206).
T1 construct: whole, on cells; also called platelet GPIb
The experiment can be described thus: conclusion from inhibition of vWf binding to platelets, flow cytometry. For orientation: In flow cytometry, cells or beads pass a laser one at a time.

Experiment [2] addresses T1, GPIb on human platelets. Put plainly: cell-based or functional assay.
The target of experiment [3] is von Willebrand factor (vWf) (human) (UniProt P04275). Put plainly: cell-based or functional assay.
The target of experiment [4] is T1, GPIb on human platelets. Put plainly: inhibition of vWf binding to platelets in PRP, flow cytometry (FITC anti-human vWf). Here is the method: In order to prepare human platelets for testing, as approved by Canadian Blood Services' Ethics Board, samples of whole blood were drawn from healthy, consenting donors into 2.7-4.0 mL citrated tubes (BD, USA). Platelet rich plasma (PRP) was prepared from whole blood by centrifugation in a Beckman (CS-6R) bench-top centrifuge (r=203.57 mm, Beckman Coulter, USA) 164×g for 15 minutes. PRP from a number of unrelated donors were evaluated on an Adiva 120 Hematology Analyzer (Bayer, Canada) and standardized to a concentration of 300×10⁹ platelets/L in HEPES buffered saline (HBS, 10 mM HEPES, 150 mM NaCl, pH 7.4).
Thereafter the samples were diluted and fixed with 1.0 mL 0.2% formolsaline (0.2% formaldehyde, 150 mM NaCl, pH 7.20) before analysis on a FACS Canto flow cytometer (BD, USA).

Another experiment concerns the target T2, wild-type GPIIbIIIa (UniProt P08514 32-1039; P05106 27-788, limits assumed).
T2 construct: also called wild-type GPIIaIIIb (so in the source); integrin alphaIIbbeta3
Put plainly: not stated (comparison value given with the SPR results).

Non-standard residues stand in square brackets, D forms with d. No end group written: not given here.

For the molecule B1, in the experiment with fibrinogen, the affinity, expressed as Kd, was 0.334 µM.

Turning to B2, the binding result in the experiment with GPIb on human platelets [1] is listed as “binds”.

Regarding B3, in the experiment with GPIb on human platelets [2], the “Aggregometry % Aggregation on Activation” value came out at 5%.

Consider B4, for which, in experiment [3], the % agglutination of washed platelets at 10 minutes, ristocetin, aggregometry, 0.1 mg/mL D-pep3 (buffer 66%, BSA 55%) amounted to 69%; the % agglutination of washed platelets at 10 minutes, ristocetin, aggregometry, 0.25 mg/mL D-pep3 (buffer 66%, BSA 55%) was determined as 28%; the % agglutination of washed platelets at 10 minutes, ristocetin, aggregometry, 0.5 mg/mL D-pep3 (buffer 66%, BSA 55%) turned out to be 13%.

For the molecule B5, in the experiment with fibrinogen, binding was put at a Kd of 12.5 µM.

As to B6, the “Aggregometry % Aggregation on Activation” value in the experiment with GPIb on human platelets [2] worked out at 5%. In addition, the “Peptide Concentration at Ic50” value with GPIb on human platelets [4] was determined as 41 µM.

Take B7: the “Aggregometry % Aggregation on Activation” value with GPIb on human platelets [2] worked out at 5%. For the same molecule, in the experiment with GPIb on human platelets [4], the IC50 is 34 µM and the “Peptide Concentration at Ic50” value was 34 µM.

As for B8, the affinity with wild-type GPIIbIIIa, expressed as Kd, was 0.103 µM.

Take B9: in the experiment with GPIb on human platelets [2], the “Aggregometry % Aggregation on Activation” value came to 5%. Moreover, in the experiment with GPIb on human platelets [4], the IC50 stood at 48 µM and the “Peptide Concentration at Ic50” value is 48 µM.

Regarding B10, the “Aggregometry % Aggregation on Activation” value in the experiment with GPIb on human platelets [2] came out at 5%.

Consider B11, for which the “Aggregometry % Aggregation on Activation” value in the experiment with GPIb on human platelets [2] came out at 5%. For the same molecule, in the experiment with GPIb on human platelets [4], the “Peptide Concentration at Ic50” value was determined as 22 µM.

In the experiment with GPIb on human platelets [2], B12 gave an Aggregometry % Aggregation on Activation of 78%.

For orientation: Kd means a measure of binding affinity in units of concentration. The low end stands for a tighter complex, the high end for a looser complex. What is called IC50 is the midpoint of a concentration-inhibition curve.
